In EP4682166A1 (Guangzhou Enmai Biotechnology Co., Ltd, dated 2026):
Residue numbers refer to the chain shown, from its start. Names and notes keep the numbering of the source.

T1: human NMI (N-myc Interacting protein), recombinant protein (human, UniProt Q13287 1-307, limits assumed)
T1 construct: Gene ID: 9111; also called hNMI; antigen
T1 sequence (looked up): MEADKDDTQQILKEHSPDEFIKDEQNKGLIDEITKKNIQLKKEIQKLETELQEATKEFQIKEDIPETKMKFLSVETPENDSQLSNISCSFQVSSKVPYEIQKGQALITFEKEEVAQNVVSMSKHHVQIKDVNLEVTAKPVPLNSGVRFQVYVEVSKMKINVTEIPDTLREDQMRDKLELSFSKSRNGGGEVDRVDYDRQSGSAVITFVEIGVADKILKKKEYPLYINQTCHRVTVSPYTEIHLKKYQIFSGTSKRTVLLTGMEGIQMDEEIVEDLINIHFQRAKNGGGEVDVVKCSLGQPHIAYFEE

B1: 98G10-H-1 (antibody, V domains shown)
VH: QEQLEESGGDLVKPEGSLTLTCTASGFSFSASYHICWVRQAPGKGLEWIACIYGGSSGSAYYASWAKGRFTISKTSSTTVTLQMTSLTAADTATYFCARAGYYNYGSAGDIYPSSFKLWGPGTLVTVSS
VL: DIVMTQTPASVEAAVGGTVTINCQASQSISTALAWYQQKPGQPPKLLIYTASKVASGVPSRFSGSGSGTQFTLTISDLECADAATYYCQNYYYSSSSITFGGGTEVVVK
notes: also called 98G10 W34H (VH)
B2: 98G10-H-2 (antibody, V domains shown)
VH: B1 VH with H34Y
VL: B1 VL
notes: also called 98G10 W34Y (VH)
B3: 98G10-H-3 (antibody, V domains shown)
VH: B1 VH with H34W, Y112R
VL: B1 VL
notes: also called 98G10 Y112R (VH)
B4: 98G10-H-4 (antibody, V domains shown)
VH: B1 VH with H34W, Y112S
VL: B1 VL
notes: also called 98G10 Y112S (VH)
B5: 98G10-H-5 (antibody, V domains shown)
VH: B1 VH with H34W, Y112E
VL: B1 VL
notes: also called 98G10 Y112E (VH)
B6: 98G10-H-6 (antibody, V domains shown)
VH: B1 VH with H34W, Y112Q
VL: B1 VL
notes: also called 98G10 Y112Q (VH)
B7: 98G10-H-7 (antibody, V domains shown)
VH: B1 VH with H34R, Y112R
VL: B1 VL
notes: also called 98G10 W34R, Y112R (VH)
B8: 98G10-H-8 (antibody, V domains shown)
VH: B1 VH with H34D, Y112R
VL: B1 VL
notes: also called 98G10 W34D, Y112R (VH)
B9: 98G10-H-9 (antibody, V domains shown)
VH: B1 VH with Y112L
VL: B1 VL
notes: also called 98G10 W34H, Y112L (VH)
B10: 98G10-H-10 (antibody, V domains shown)
VH: B1 VH with H34T, Y112R
VL: B1 VL
notes: also called 98G10 W34T, Y112R (VH)
B11: 98G10-H-11 (antibody, V domains shown)
VH: B1 VH with Y112R
VL: B1 VL
notes: also called 98G10 W34H, Y112R (VH)
B12: 98G10-H-12 (antibody, V domains shown)
VH: B1 VH with Y112S
VL: B1 VL
notes: also called 98G10 W34H, Y112S (VH)
B13: 98G10-H-13 (antibody, V domains shown)
VH: B1 VH with H34K, Y112S
VL: B1 VL
notes: also called 98G10 W34K, Y112S (VH)
B14: 98G10-H-14 (antibody, V domains shown)
VH: B1 VH with H34D, Y112S
VL: B1 VL
notes: also called 98G10 W34D, Y112S (VH)
B15: 98G10-L-1 (antibody, V domains shown)
VH: B1 VH with H34W
VL: B1 VL with Y93R
notes: also called 98G10 Y93R (VL)
B16: 98G10-L-2 (antibody, V domains shown)
VH: B1 VH with H34W
VL: B1 VL with Y93S
notes: also called 98G10 Y93S (VL)
B17: 98G10-L-3 (antibody, V domains shown)
VH: B1 VH with H34W
VL: B1 VL with Y93Q
notes: also called 98G10 Y93Q (VL)
B18: 98G10-1 (mutated antibody of Table 17-7) (antibody, V domains shown)
VH: B1 VH with H34W
VL: B1 VL with C80P
notes: also called 98G10 C80P (VL)
B19: 98G10-2 (antibody, V domains shown)
VH: B1 VH with H34W, T81Y
VL: B1 VL
notes: also called 98G10 T81Y (VH)
B20: 98G10-3 (antibody, V domains shown)
VH: B1 VH with H34W, T81Y
VL: B1 VL with C80P
notes: also called 98G10 T81Y (VH), C80P (VL)
B21: 98G10-4 (antibody, V domains shown)
VH: B1 VH with T23K, H34W
VL: B1 VL with C80P
notes: also called 98G10 T23K (VH), C80P (VL)
B22: 98G10-5 (antibody, V domains shown)
VH: B1 VH with H34W
VL: B1 VL with T18R, C80P
notes: also called 98G10 T18R/C80P (VL)
B23: 240B10-1 mutant D27K (VH) (antibody, V domains shown)
VH: QSLEESGGRLVTPGGSLTLTCTVSGIKLSSYTMGWVRQAPGKGLEYIGIISGGGRTYYASWAKGRFTISKTSSTTVDLKVTSLTTEDTATYFCARIYTLWGQGTLVTVSS
VL: QVLTQTLASVSAAVGGTVTINCQSSQSVYNNDYLAWFQQKSGQPPKQLIHSASKLASGVPSRFKGSGSGTQFTLTINDVQCDDAATYYCLGGYDCYSADCNVFGGGTEVVVK
B24: 240B10-1 mutant D27P (VH) (antibody, V domains shown)
VH: B23 VH with K27P
VL: B23 VL
B25: 240B10-1 mutant G52E (VH) (antibody, V domains shown)
VH: B23 VH with K27D, G52E
VL: B23 VL
B26: 240B10-1 mutant G52K (VH) (antibody, V domains shown)
VH: B23 VH with K27D, G52K
VL: B23 VL
B27: 240B10-1 mutant G52Q (VH) (antibody, V domains shown)
VH: B23 VH with K27D, G52Q
VL: B23 VL
B28: 240B10-1 mutant G52R (VH) (antibody, V domains shown)
VH: B23 VH with K27D, G52R
VL: B23 VL
B29: 240B10-1 mutant N30E (VL) (antibody, V domains shown)
VH: B23 VH with K27D
VL: B23 VL with N30E
B30: 240B10-1 mutant N30T (VL) (antibody, V domains shown)
VH: B23 VH with K27D
VL: B23 VL with N30T
B31: 240B10-1 mutant S29D (VH) (antibody, V domains shown)
VH: B23 VH with K27D, S29D
VL: B23 VL
B32: 240B10-1 mutant S29E (VH) (antibody, V domains shown)
VH: B23 VH with K27D, S29E
VL: B23 VL
B33: 240B10-1 mutant S29Q (VH) (antibody, V domains shown)
VH: B23 VH with K27D, S29Q
VL: B23 VL
B34: 240B10-1 mutant S30A (VH) (antibody, V domains shown)
VH: B23 VH with K27D, S30A
VL: B23 VL
B35: 240B10-1 mutant S30D (VH) (antibody, V domains shown)
VH: B23 VH with K27D, S30D
VL: B23 VL
B36: 240B10-1 mutant S30E (VH) (antibody, V domains shown)
VH: B23 VH with K27D, S30E
VL: B23 VL
B37: 240B10-1 mutant S30K (VH) (antibody, V domains shown)
VH: B23 VH with K27D, S30K
VL: B23 VL

molecular target: T1, human NMI (N-myc Interacting protein), …; experiment: ELISA EC50 against parent 98G10

Row | Fold decrease in affinity | Binder
1 | 0.77 fold | B1
2 | 16.4 fold | B2
3 | 0.9 fold | B3
4 | 2.65 fold | B4
5 | 59.7 fold | B5
6 | 2.97 fold | B6
7 | 50.4 fold | B7
8 | 51.3 fold | B8
9 | 10 fold | B9
10 | 60 fold | B10
11 | 0.84 fold | B11
12 | 2.61 fold | B12
13 | 54.1 fold | B13
14 | 48.1 fold | B14
15 | 2.81 fold | B15
16 | 1.71 fold | B16
17 | 2.13 fold | B17

molecular target: T1, human NMI (N-myc Interacting protein), …; experiment: ELISA, binding to hNMI

Row | EC50 | Binder
18 | 0.173 nM | B18
19 | 0.0483 nM | B19
20 | 0.176 nM | B20
21 | 0.177 nM | B21
22 | 0.238 nM | B22

molecular target: T1, human NMI (N-myc Interacting protein), …; experiment: ELISA, binding to hNMI; remark: another data set of the same source

Row | EC50 | Binder
23 | 0.024 µg/mL | B1
24 | 0.507 µg/mL | B2
25 | 0.028 µg/mL | B3
26 | 0.082 µg/mL | B4
27 | 1.85 µg/mL | B5
28 | 0.092 µg/mL | B6
29 | 1.56 µg/mL | B7
30 | 1.59 µg/mL | B8
31 | 0.311 µg/mL | B9
32 | 1.86 µg/mL | B10
33 | 0.026 µg/mL | B11
34 | 0.081 µg/mL | B12
35 | 1.68 µg/mL | B13
36 | 1.49 µg/mL | B14
37 | 0.087 µg/mL | B15
38 | 0.053 µg/mL | B16
39 | 0.066 µg/mL | B17

molecular target: T1, human NMI (N-myc Interacting protein), …; experiment: ELISA EC50 against parent 240B10-1

Row | Fold decrease in affinity | Binder
40 | > 500 fold | B23
41 | > 500 fold | B24
42 | > 500 fold | B25
43 | > 500 fold | B26
44 | > 500 fold | B27
45 | > 500 fold | B28
46 | > 500 fold | B29
47 | > 500 fold | B30
48 | > 500 fold | B31
49 | > 500 fold | B32
50 | > 500 fold | B33
51 | > 500 fold | B34
52 | > 500 fold | B35
53 | > 500 fold | B36
54 | > 500 fold | B37

molecular target: T1, human NMI (N-myc Interacting protein), …; experiment: ELISA EC50 against parent 98G10; remark: another data set of the same source

Row | Fold decrease in affinity | Binder
55 | 1.05 fold | B18
56 | 0.29 fold | B19
57 | 1.06 fold | B20
58 | 1.07 fold | B21
59 | 1.44 fold | B22
